Source: paper PMC6555819, “Comprehensive study of nuclear receptor DNA binding provides a revised framework for understanding receptor specificity”

What follows are binders tested against FXR:RXRa (Homo sapiens, UniProt Q96RI1;P19793 full;full) (assay: no ligand; PBM; 270 nM : 90 nM RXRa; PBS pH 7.4, 2% milk, 0.02% Triton X-100, 1 mM DTT, BSA, 0.4 mg/ml salmon testes DNA). Conditions: tags: His kept;His cleaved; copies: 1;1; label: surface-attached array probe.
Procedure, shortened: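 Each nuclear receptor dimer, without ligand, was incubated for 1 h on custom Agilent 4×180K protein-binding microarrays. Binding was detected with antibodies against each partner (one per run), and scanned fluorescence was regression-normalized. The binding z-scores are referenced to random human genomic background probes.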

Sequence of FXR:RXRa (Q96RI1 whole entry, chain 1 of 2): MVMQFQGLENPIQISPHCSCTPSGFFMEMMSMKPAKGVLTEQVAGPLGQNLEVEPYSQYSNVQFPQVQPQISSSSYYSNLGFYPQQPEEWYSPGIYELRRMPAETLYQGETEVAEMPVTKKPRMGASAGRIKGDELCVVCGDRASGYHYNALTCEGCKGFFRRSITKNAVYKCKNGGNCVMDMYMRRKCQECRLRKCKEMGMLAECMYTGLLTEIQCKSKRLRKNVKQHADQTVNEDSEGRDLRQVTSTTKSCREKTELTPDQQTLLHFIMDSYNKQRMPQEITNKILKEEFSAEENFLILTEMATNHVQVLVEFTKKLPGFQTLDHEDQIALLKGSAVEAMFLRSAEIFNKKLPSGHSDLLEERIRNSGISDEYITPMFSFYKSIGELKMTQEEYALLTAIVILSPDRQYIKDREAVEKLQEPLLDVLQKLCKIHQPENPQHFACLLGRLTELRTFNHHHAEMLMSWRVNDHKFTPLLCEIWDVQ
Sequence of FXR:RXRa (P19793 whole entry, chain 2 of 2): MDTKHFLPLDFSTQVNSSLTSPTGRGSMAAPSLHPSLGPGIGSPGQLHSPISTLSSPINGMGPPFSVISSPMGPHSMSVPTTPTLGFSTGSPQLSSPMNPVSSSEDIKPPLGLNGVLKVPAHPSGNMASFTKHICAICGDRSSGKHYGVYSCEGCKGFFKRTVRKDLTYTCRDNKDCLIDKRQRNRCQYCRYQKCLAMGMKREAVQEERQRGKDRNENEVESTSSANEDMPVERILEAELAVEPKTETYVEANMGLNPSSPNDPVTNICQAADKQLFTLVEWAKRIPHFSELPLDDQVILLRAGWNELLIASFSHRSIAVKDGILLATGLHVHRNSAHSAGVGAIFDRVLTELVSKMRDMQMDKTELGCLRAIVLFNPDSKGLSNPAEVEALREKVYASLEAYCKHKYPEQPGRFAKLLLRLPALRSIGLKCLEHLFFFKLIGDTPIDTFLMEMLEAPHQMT

| Binder | binding signal |
| --- | --- |
| NRC3_random_hg19_296_o1 (dsDNA) DNA 1: GCGGCCTATGGCTCCAGAATGCTAATGCTACTCTGCGCGATTGACAGCGTAGAATGAAGG DNA 2: CCTTCATTCTACGCTGTCAATCGCGCAGAGTAGCATTAGCATTCTGGAGCCATAGGCCGC | -0.48 PBM z-score against 500 random probes |
| NRC3_random_hg19_316_o1 (dsDNA) DNA 1: GCCAAAGACAGCTTTGCAAGGCCACTTCTGTTTGCTGCGATTGACAGCGTAGAATGAAGG DNA 2: CCTTCATTCTACGCTGTCAATCGCAGCAAACAGAAGTGGCCTTGCAAAGCTGTCTTTGGC | -0.15 PBM z-score against 500 random probes |
| NRC3_wobSeed109_DR4_A8G_o1 (dsDNA) DNA 1: GCCGTCCGAGGTCATAGGAGGTCAGTGAAGACAGATGCGATTGACAGCGTAGAATGAAGG DNA 2: CCTTCATTCTACGCTGTCAATCGCATCTGTCTTCACTGACCTCCTATGACCTCGGACGGC | 8.19 PBM z-score against 500 random probes |
| NRC3_random_hg19_345_o1 (dsDNA) DNA 1: GCGCAGTGGGTGATGATGTCACTGGTTAACGTGGCTGCGATTGACAGCGTAGAATGAAGG DNA 2: CCTTCATTCTACGCTGTCAATCGCAGCCACGTTAACCAGTGACATCATCACCCACTGCGC | -0.31 PBM z-score against 500 random probes |
| NRC3_random_hg19_87_o1 (dsDNA) DNA 1: GCGACTGCTTGCATCAGTCAAGGTTTGGGCAGTGAGGCGATTGACAGCGTAGAATGAAGG DNA 2: CCTTCATTCTACGCTGTCAATCGCCTCACTGCCCAAACCTTGACTGATGCAAGCAGTCGC | -0.74 PBM z-score against 500 random probes |
| NRC3_wobSeed135_DR5_T8G_o1 (dsDNA) DNA 1: GCCGAACGAGGTCATTGACAGGACAGTGAATAGTAAGCGATTGACAGCGTAGAATGAAGG DNA 2: CCTTCATTCTACGCTGTCAATCGCTTACTATTCACTGTCCTGTCAATGACCTCGTTCGGC | 7.83 PBM z-score against 500 random probes |
| NRC3_random_hg19_295_o1 (dsDNA) DNA 1: GCGAGGTTGCAGAGATGTTCTCACTAAACATTCGTTGCGATTGACAGCGTAGAATGAAGG DNA 2: CCTTCATTCTACGCTGTCAATCGCAACGAATGTTTAGTGAGAACATCTCTGCAACCTCGC | 0.03 PBM z-score against 500 random probes |
| NRC3_random_hg19_148_o1 (dsDNA) DNA 1: GCTGTGTCACCATGAGCAATCCAACCAGGCATCCCAGCGATTGACAGCGTAGAATGAAGG DNA 2: CCTTCATTCTACGCTGTCAATCGCTGGGATGCCTGGTTGGATTGCTCATGGTGACACAGC | -0.04 PBM z-score against 500 random probes |
| NRC3_wobSeed39_DR1_T8G_o1 (dsDNA) DNA 1: GCCGAACGAGGTCAAAGGACAGTGAAAGGCGACGTAGCGATTGACAGCGTAGAATGAAGG DNA 2: CCTTCATTCTACGCTGTCAATCGCTACGTCGCCTTTCACTGTCCTTTGACCTCGTTCGGC | 8.11 PBM z-score against 500 random probes |
| NRC3_random_hg19_144_o1 (dsDNA) DNA 1: GCCAGTGCTGGCGTCGTAGTGCTTGCCATAACAGAGGCGATTGACAGCGTAGAATGAAGG DNA 2: CCTTCATTCTACGCTGTCAATCGCCTCTGTTATGGCAAGCACTACGACGCCAGCACTGGC | -0.87 PBM z-score against 500 random probes |
| NRC3_random_hg19_36_o1 (dsDNA) DNA 1: GCCAGGCAGTTTGCTTGAGCTCAGGAGTTCAAGACTGCGATTGACAGCGTAGAATGAAGG DNA 2: CCTTCATTCTACGCTGTCAATCGCAGTCTTGAACTCCTGAGCTCAAGCAAACTGCCTGGC | -0.62 PBM z-score against 500 random probes |
| NRC3_wobSeed116_DR4_T13C_o1 (dsDNA) DNA 1: GCAGAATGAGGTCACCAAAGATCAGGGAAACGCTTGGCGATTGACAGCGTAGAATGAAGG DNA 2: CCTTCATTCTACGCTGTCAATCGCCAAGCGTTTCCCTGATCTTTGGTGACCTCATTCTGC | 7.91 PBM z-score against 500 random probes |
| NRC3_random_hg19_210_o1 (dsDNA) DNA 1: GCATCATTTGCTCTGGGTGAAGCCAGCTACCATGTTGCGATTGACAGCGTAGAATGAAGG DNA 2: CCTTCATTCTACGCTGTCAATCGCAACATGGTAGCTGGCTTCACCCAGAGCAAATGATGC | -0.02 PBM z-score against 500 random probes |
| NRC3_wobSeed114_DR4_T5A_o1 (dsDNA) DNA 1: GCAAAACAGGGTCATCGTAGGCCAGAGTACGCACAGGCGATTGACAGCGTAGAATGAAGG DNA 2: CCTTCATTCTACGCTGTCAATCGCCTGTGCGTACTCTGGCCTACGATGACCCTGTTTTGC | 7.8 PBM z-score against 500 random probes |
| NRC3_random_hg19_232_o1 (dsDNA) DNA 1: GCTTAGCAGGAACTGAGAAGTCACACTCAAGAGTTAGCGATTGACAGCGTAGAATGAAGG DNA 2: CCTTCATTCTACGCTGTCAATCGCTAACTCTTGAGTGTGACTTCTCAGTTCCTGCTAAGC | -0.34 PBM z-score against 500 random probes |
| NRC3_wobSeed13_DR0_G21A_o1 (dsDNA) DNA 1: GCCGTCCAAGGTCAAGGTCAATGAAAGAGACTCGAAGCGATTGACAGCGTAGAATGAAGG DNA 2: CCTTCATTCTACGCTGTCAATCGCTTCGAGTCTCTTTCATTGACCTTGACCTTGGACGGC | 8.19 PBM z-score against 500 random probes |
| NRC3_random_hg19_377_o1 (dsDNA) DNA 1: GCTTTAGAAGAAAGGTTTCATTACTGAGAGCAGCCAGCGATTGACAGCGTAGAATGAAGG DNA 2: CCTTCATTCTACGCTGTCAATCGCTGGCTGCTCTCAGTAATGAAACCTTTCTTCTAAAGC | -0.61 PBM z-score against 500 random probes |
| NRC3_random_hg19_488_o1 (dsDNA) DNA 1: GCGGTTGCAGTGAGCTGAGATCACACCACTGCACTCGCGATTGACAGCGTAGAATGAAGG DNA 2: CCTTCATTCTACGCTGTCAATCGCGAGTGCAGTGGTGTGATCTCAGCTCACTGCAACCGC | -0.28 PBM z-score against 500 random probes |
| NRC3_wobSeed20_DR0_T13C_o1 (dsDNA) DNA 1: GCAGAATGAGGTCAAGATCAGGGAAACAGAATACATGCGATTGACAGCGTAGAATGAAGG DNA 2: CCTTCATTCTACGCTGTCAATCGCATGTATTCTGTTTCCCTGATCTTGACCTCATTCTGC | 7.87 PBM z-score against 500 random probes |
| NRC3_random_hg19_467_o1 (dsDNA) DNA 1: GCGAAACTGCTGCAAAGGCCTACTGAAGCCTGACTGGCGATTGACAGCGTAGAATGAAGG DNA 2: CCTTCATTCTACGCTGTCAATCGCCAGTCAGGCTTCAGTAGGCCTTTGCAGCAGTTTCGC | -0.59 PBM z-score against 500 random probes |
| NRC3_wobSeed18_DR0_C18T_o1 (dsDNA) DNA 1: GCGATACAGGGTCAAGGTCAGAGTACGCGTATTGATGCGATTGACAGCGTAGAATGAAGG DNA 2: CCTTCATTCTACGCTGTCAATCGCATCAATACGCGTACTCTGACCTTGACCCTGTATCGC | 7.81 PBM z-score against 500 random probes |
| NRC3_wobSeed140_DR5_T13C_o1 (dsDNA) DNA 1: GCAGAATGAGGTCATACGTAGATCAGGGAAGAAAGTGCGATTGACAGCGTAGAATGAAGG DNA 2: CCTTCATTCTACGCTGTCAATCGCACTTTCTTCCCTGATCTACGTATGACCTCATTCTGC | 8.1 PBM z-score against 500 random probes |
| NRC3_wobSeed87_DR3_T8A_o1 (dsDNA) DNA 1: GCCGAACAAGGTCATCCAGGACAGTGAATACATTGAGCGATTGACAGCGTAGAATGAAGG DNA 2: CCTTCATTCTACGCTGTCAATCGCTCAATGTATTCACTGTCCTGGATGACCTTGTTCGGC | 8.1 PBM z-score against 500 random probes |
| NRC3_wobSeed14_DR0_T8G_o1 (dsDNA) DNA 1: GCCCTGCGAGGTCATGGTCAGCTAATCTACAGTATGGCGATTGACAGCGTAGAATGAAGG DNA 2: CCTTCATTCTACGCTGTCAATCGCCATACTGTAGATTAGCTGACCATGACCTCGCAGGGC | 7.8 PBM z-score against 500 random probes |
